Test results reported in PMC11270187.

Target: HLA-DR on BJAB cells (human (endogenous in BJAB))
Assay: flow cytometry on cells; full antibody titration of purified IgGs on HLA-DR-expressing BJAB cells, Fc Block, 1 h at 4 °C, detected with AF488 goat anti-human IgG Fcγ; also after storage of the IgGs at -20, 4 or 40 °C for up to 4 weeks

fold difference in EC50 against parental 44H10: > 50 fold
B1: humanized 44H10 version 17 IgG (antibody, V domains shown)
VH: QVTLKESGPVLVKPTETLTLTCTVSGFSLTSYGVHWIRQPPGKALEWLAVIWAGGSISYSTSLMSRLTISKDTSKSQVVLTMTNMDPVDTATYYCARAYGDYVHYAMDYWGQGTLVTVSS
VL: DIQMTQSPSSLSASVGDRVTITCRASQEISGYLTWLQQKPGKAPKLLIYAASTLDSGVPSRFSGSGSGTDFTLTISSLQPEDFATYYCLQYTNYPLTFGQGTKLEIK
